Several values for one entry are separate records, joined by “and”; a condition that tells them apart may be missing. Identical values can stand only once. Each block holds one binder with its values, some of them ahead of it. *1 amine or outer side, *2 acyl side, *3 side chain or, on linkers, in order; H or OH if unused. Bridges are numbered along the chain shown (N, C = ends). Where no end group is shown, it is not given here. Lys(Aoa) = NOCC(=O)NCCCC[C@H](N[*:1])C(=O)[*:2]
Key:
[1] = target: T1, Human LRP-8 (isoform 3) expressed on cells (human, UniProt Q14114 33-963); test: cell-based or functional assay
T1 sequence (Q14114 other isoform, or with tags, fused parts or gaps limits assumed): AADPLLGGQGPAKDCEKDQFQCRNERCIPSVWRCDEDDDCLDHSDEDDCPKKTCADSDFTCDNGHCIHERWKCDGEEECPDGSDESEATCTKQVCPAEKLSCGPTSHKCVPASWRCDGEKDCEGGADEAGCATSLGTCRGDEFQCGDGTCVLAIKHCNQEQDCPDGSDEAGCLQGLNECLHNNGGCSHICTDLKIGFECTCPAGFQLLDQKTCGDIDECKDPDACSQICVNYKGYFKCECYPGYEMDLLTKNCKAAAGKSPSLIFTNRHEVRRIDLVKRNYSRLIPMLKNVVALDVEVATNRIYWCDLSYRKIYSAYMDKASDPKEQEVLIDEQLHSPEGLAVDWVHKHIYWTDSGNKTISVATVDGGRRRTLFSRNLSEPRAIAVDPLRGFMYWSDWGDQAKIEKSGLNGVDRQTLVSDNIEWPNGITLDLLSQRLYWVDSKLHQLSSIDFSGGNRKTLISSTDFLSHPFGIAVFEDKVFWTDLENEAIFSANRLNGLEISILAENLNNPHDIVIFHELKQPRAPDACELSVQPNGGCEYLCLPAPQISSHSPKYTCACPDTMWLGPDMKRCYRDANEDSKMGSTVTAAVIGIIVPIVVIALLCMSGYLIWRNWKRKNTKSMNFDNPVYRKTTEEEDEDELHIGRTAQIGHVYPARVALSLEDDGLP

[2] = target: T1, Human LRP-8 (isoform 3) expressed on …; test: cell-based ECL-MSD, 10 ug/ml Ab, human_LRP-8_HEK293
Experimental: (§1) A cell-based ECL-MSD binding assay was used to determine antibody affinity. HEK293 cells overexpressing human, monkey or mouse LRP-8 were added onto MSD 96-well plate (MSD Cat# L15XB-3/L11XB-3) and incubated at 37° C. for one hour. Cells were blocked using 15% FBS (Hyclone, Thermo Scientific Cat# SH300700.03) at RT for 30 minutes with mild agitation. Plates were washed with DPBS three times and Abs or DVD-Ig binding proteins were added to the well. After incubation at RT for one hour, plates were washed with DPBS and goat anti-human or anti-mouse Sulfo TAG (MSD Cat#R32AJ-1) was added. Plates were incubated at RT for one hour, washed with DPBS and immersed in MSD read buffer (MSD Cat#R92TD-2) before reading on a MSD SECTOR Imager 6000. EC50 values were obtained using Xlfit4 software system.

[3] = target: T2, Cynomolgus monkey LRP-8 expressed on HEK293 cells (cynomolgus monkey); test: cell-based ECL-MSD, 10 ug/ml Ab, cyno-LRP-8-HEK293
T2 construct: whole, on cells; also called cyno LRP-8; cLRP-8
Experimental: as §1

[4] = target: T1, Human LRP-8 (isoform 3) expressed on …; test: cell-based binding assay, hLRP8
[5] = target: T2, Cynomolgus monkey LRP-8 expressed on …; test: cell-based binding assay, cynoLRP8
[6] = target: T2, Cynomolgus monkey LRP-8 expressed on …; test: cell-based MSD-ECL binding on cells overexpressing cyno LRP-8 variant 1 (cynoLRP8 assay)
Experimental: as §1

[7] = target: T1, Human LRP-8 (isoform 3) expressed on …; test: cell-based MSD-ECL binding on cells overexpressing human LRP-8 variant 3 (hLRP8 assay)
Experimental: as §1

[8] = target: T2, Cynomolgus monkey LRP-8 expressed on …; test: cell-based binding on CYNO LRP8-HEK293, supernatant 1:125
[9] = target: T2, Cynomolgus monkey LRP-8 expressed on …; test: cell-based binding on CYNO LRP8-HEK293, supernatant 1:25
[10] = target: T2, Cynomolgus monkey LRP-8 expressed on …; test: cell-based binding on CYNO LRP8-HEK293, supernatant 1:5
[11] = target: T2, Cynomolgus monkey LRP-8 expressed on …; test: FACS, cyno LRP8 cells
[12] = target: T3, CR1 cyclic peptide of human LRP-8 (human, disulfide 1-13); test: ELISA using CR1 peptide
T3 construct: also called CR1 peptide; conjugated human LRP-8 CR1 peptide
T3 peptide: CEKDQFQSRNERCIPSVWR-{Lys(Aoa)-NH2}

B1: anti-LRP-8 ML201-8F3.3D7 murine antibody (muFc) (antibody, V domains shown)
VH: EVQLVESGGDLVKPGGSLKLSCAASRFTFSNFGMSWVRQTPDKRLEWVATISSGGRYTYYPDSVKGRFTISRDNAKNTLYLQMSSLRSEDTAMYYCARDYLYAMDYWGQGTSVTVSS
VL: DVVMTQTPLSLPVSLGDQASISCRSSQSLVYSNGNTYLHWYLQKPGQSPKVLMYKVSNRFSGVSDRFSGSGSGTDFTLKISRVEAEDLGVYFCSQSTHVPLTFGAGTKLELK
notes: Mouse Fc form; also called ML201-8F3-3D7 muFc; CL-33866
Endocytosis, fold over IgG control [1]: 1.6 fold
Transcytosis, fold over IgG control [1]: 1.08 fold
fold over mIgG control [2]: 13.6 fold
fold over mIgG control [3]: 5.2 fold

B3: anti-LRP-8 BGK-9D10-2 antibody (CL-105967) (antibody, V domains shown)
VH: EVQLVESGGGLVQSGRSLKLSCAASGFTFSNYYMAWVRQAPKKGLEWVATITTSGSRSFYPDSVKGRFTISRDNAKSSLYLQINSLKSEDTATYYCARRGPLGYFDHWGRGVMVTVSS
VL: DIQMTQSPPSLPASLGDKVTITCQASQNINKYIAWYQQKPGKAPRLLIRFTSTLESDTPSRFSGSGSGRDYSFSISNVESEDFASYYCLHYDNLPPWTFGGGTKLELK
notes: also called BGT-9D10-2
EC50 [4]: 2.29 nM
EC50 [5]: 0.64 nM
EC50 [6]: 0.12 µg/mL and 0.6 nM
EC50 [7]: 0.108 µg/mL and 0.54 nM

B6: anti-LRP-8 BGK-2H4 chimeric antibody (CL-105945) (antibody, V domains shown)
VH: EVQLVESGGGLVQPGRSMKLSCAASGFTFSSFPMAWVRQAPTKGLEWVATVSTRGGHTYYRDSVKGRFTISRDNAKNTLYLQMNSLRSEDTATYYCIREGTSLFAYWGQGTLVTVSS
VL: DIQMTQSPPSLSASLGETVSIECLASEDISNYLAWYQQKPGKSPQLLIYYANSLEDGVPSRFSGSGSGTQYSLKISNMQPEDEGVYHCQQGYNYPYTFGAGTKLELK
EC50 [4]: 0.21 nM
EC50 [5]: 1.08 nM

B8: anti-LRP-8 BGK-2C8.8C antibody (antibody, V domains shown)
VH: EVQLVESGGGLVQPGRSLKLSCAASGFTVSDYYMAWVRQAPKKGLEWVASISYEGSSTYYGDSVKGRFTISRDNAKSILYLQMNSLRSEDTATYYCARPLRYYGYNYRFAYWGQGTLVTVSS
VL: DIQMSQSPPVLSASVGDRVTLSCKASQNIHKNLDWYQQKHGEAPKLLIYYTDNLQTGIPSRFSGSGSGTDYTLTISSLQPEDVATYYCYQYNSGPTFGAGTKLELQ
EC50 [4]: 2.62 nM
EC50 [5]: 0.82 nM
EC50 [6]: 0.0881 µg/mL and 0.44 nM
EC50 [7]: 0.55 µg/mL and 2.75 nM

B10: anti-LRP-8 ML201-2B4.2B1.2H10 murine antibody (muFc) (antibody, V domains shown)
VH: DVKLVASGGGLVKPGGSLKLSCAASGFTLSRYAMSWVRQTPEKRLEWVAYIRNGGDYIYYADTVKGRFTISRDNARNTLYLQMSSLKSEDTAMYYCTREGSYYNFDYWGQGTTLTVSS
VL: DVLMTQTPLSLPVSLGDQASISCRSSQSIVHSNGNTYLEWYLQKPGQSPNLLIFKVSNRFSGVPDRFIGSGSGTDFTLKISRVEAEDLGVYYCFQGSHVPWTFGGGTKLEIK
notes: Mouse Fc form; also called ML201-2B4.2B1.2H10 muFc; CL-33867
Endocytosis, fold over IgG control [1]: 1.8 fold
Transcytosis, fold over IgG control [1]: 1.44 fold
fold over mIgG control [2]: 14.2 fold
fold over mIgG control [3]: 2.8 fold

B11: anti-LRP-8 BGK-7A11 chimeric antibody (CL-105959) (antibody, V domains shown)
VH: QVTLKESGPGILQPSQTLSLTCTFSGFSLSTYGMGVGWIRQPAGTGLEWLANIWWDDDKYYNPSLKNRLTISKDTSNNQVFLKITNVDTADTATYYCARTTKPYYFDYWGQGVMVTVSS
VL: HFVLAQPNSVSTNLGSTVKLSCKRSTGNSGSNYVNWYQQYEGRSPTTMIYRDDKRPDGVPDRFSGSIDRSSNSALLTINNVQTEDEADYFCQSYSSGINIFGGGTKLTVL
EC50 [4]: 0.12 nM
EC50 [5]: 0.53 nM

B12: anti-LRP-8 BGK-7F7 chimeric antibody (CL-105960) (antibody, V domains shown)
VH: QVTLKESGPGILQPSQTLSLTCTFSGFSLSTYGLGVGWIRQPSGKGLEWLANIWWDDAKYYNPSLKNRLTISKDTSNNQAFLKIPNVDTADTARYYCARTTKPYYFDYWGQGVMVTVSS
VL: HFVLAQPNSVSTNLGSTVKLSCKRSTANIGSNYVNWYQQHEGRSPTTLIYRDDRRPDGVPDRFSGSIDRSSNSALLTINNVQTEDEADYFCQSYSSGINIFGGGTKLTVL
EC50 [4]: 0.11 nM
EC50 [5]: 0.35 nM

B13: anti-LRP-8 BGK-6B5-2 chimeric antibody (CL-105969) (antibody, V domains shown)
VH: QVSLQESGPGILQPSQTLSLTCTFSGFSLSTFGMGVGWIRQPSGKGLEWLANIWWDDDKYYNPSLKNRLTISKDTSNNQAFLKITNVDTADTATYYCARTAKPYYFDYWGHGVMVTVSS
VL: HFVLAQPNSVSTNLGNTVKLSCKRSTGNIGSNYVNWYQQHEGRSPTTLIYRDDKRPDGVPDRFSGSFDRSSNSALLTINNVQTEDEADYFCQSYNSGINFFGGGTKLTVL
EC50 [4]: 0.15 nM
EC50 [5]: 0.51 nM

The next lines start with the values.

EC50 [4]: 0.16 nM
B2: chimeric anti-LRP-8 ML201-8F3.3D7 antibody (antibody, V domains shown)
VH: EVQLVESGGDLVKPGGSLKLSCAASRFTFSNFGMSWVRQTPDKRLEWVATISSGGRYTYYPDSVKGRFTISRDNAKNTLYLQMSSLRSEDTAMYYCARDYLYAMDYWGQGTSVTVSS
VL: DVVMTQTPLSLPVSLGDQASISCRSSQSLVYSNGNTYLHWYLQKPGQSPKVLMYKVSNRFSGVSDRFSGSGSGTDFTLKISRVEAEDLGVYFCSQSTHVPLTFGAGTKLELK
notes: also called ML201.8F3.3D7 hFc; CL-33866

fold over isotype control [8]: 0.87 fold
EC50 [4]: 0.11 nM
EC50 [5]: 0.25 nM
fold over isotype control [9]: 1.02 fold
fold over isotype control [10]: 0.41 fold
B4: anti-LRP-8 BGK.6E3.F4 [r/m IgG2a/K] (antibody, V domains shown)
VH: EVQLVESGGGLVQPGKSLKLSCAASGFTFSDYNMAWVRQAPKKGLEWVATIMYDGSRTFYRDSVKGRYTFSRDNAKSTLYLQMDSLRSEDTATYYCATGRNWFAYWGQGTLVTVSS
VL: DIIMTQSPSSLAVSAGETVTINCKSSQSLLSSGKQKNYLAWYQQKPGQSPKLLIYLASTRESGVPDRFIGSGSGTDFTLTISSMQAEDLAIYYCQQHYDTPLTFGSGTKLEIK
notes: Rat variable domains on mouse IgG2a/kappa

fold over isotype control [8]: 28.2 fold
EC50 [4]: 0.24 nM
EC50 [5]: 0.77 nM
fold over isotype control [9]: 30.2 fold
fold over isotype control [10]: 5.85 fold
B5: anti-LRP-8 BGK.5D10.E4 [r/m IgG2a/K] (antibody, V domains shown)
VH: QVQLRETGPDLVQPTQTLSLTCTVSGFSLTNYPVQWVRQPPGSGLEWLGIMWPSGAADFNPALKSRLSISRDTSKSQFFLRMDNLQTDDTAIYFCARGRGYSSPYAMDAWGQGTSVTVSS
VL: DIQMTQSPASLSASLGETVSIECLASEDIYNNLAWYQQKPGKSPHLLIHFTSNLQDGVPSRFSGSGSGTQYSLKINSLESEDGATYFCLQDSEYPLTFGSGTKLEIK
notes: as for B4

fold over isotype control [8]: 13.7 fold
EC50 [4]: 0.1 nM
EC50 [5]: 0.31 nM
fold over isotype control [9]: 13.8 fold
fold over isotype control [10]: 5.16 fold
B7: anti-LRP-8 BGK.2C8.E6.D3 [r/m IgG2a/K] (antibody, V domains shown)
VH: QVTLKESGPGILQPSQTLSLTCTFSGFSLNTYGMGVGWVRQPSGKGLEWLANIWWDDDKFYNPSLKNRLTVSKDTSNNQAFLRITNGDTADTATYFCARILGEDIGGALDAWGQGTSVTVSS
VL: DTVLTQSPALAVSPGERVSISCRASEGVNSYMHWYQQNPGQQSKLLIYRTSNLASGVPARFGGSGSGTDFTLTIDPVEADDTATYFCQQSWNDPPTFGGGTKLELK

Endocytosis, fold over IgG control [1]: 2.6 fold
Transcytosis, fold over IgG control [1]: 1.53 fold
fold over mIgG control [2]: 17.3 fold
fold over mIgG control [3]: 1.2 fold
B9: anti-LRP-8 antibody ab58216 (mFc) (antibody, V domains shown)
VH: EVHLQQSGPEVVKPGASVKISCKASGYIISGYFLNWVKQSHGKSLEWVGRINPYSGDTFFNQKFKGKATLTVDKSSNTAHMELRSLTSEDSAVFYCAREDIGRFAYWGQGTLVTVSA
VL: DVLMTQTPLSLPVSLGDQASISCRSSQTIVHSNGNTYLEWYLQKPGQSPKLLIYKVSNRFSGVPDRFSGSGSGTDFTLKISRVEAEDLGVYYCFQGSHAPPTFGGGTKLEIK
notes: Mouse Fc form

FACS (ratio +/-) [11]: 16.5 ratio
OD450 [12]: 0.17 OD450
B14: anti-LRP-8 antibody CL-135325 (antibody, V domains shown)
VH: EVQLVQSGGGLVQPGGSLRLSCAASGFTFSIYAMSWVRQAPGKGLEWVSVISCSAGSTYYADSVKGRFTISRDNSKNTLYLQMNSLRAEDTAVYYCARHSVHEEFPFDVWGQGTLVTVSS
VL: DIQMTQSPSSLSASVGDRVTITCRASQSIGSYLNWYQQKPGKAPKLLIYAASSLQSGVPSRFSGSGSGTDFTLTISSLQPEDFATYYCQQSYIPPLTFGGGTKVEIK

FACS (ratio +/-) [11]: 12.6 ratio
OD450 [12]: 0.1 OD450
B15: anti-LRP-8 antibody CL-135359 (antibody, V domains shown)
VH: EVQLVQSGGGLVQPGGSLRLSCAASGFTFSSYAMSWVRQAPGKGLEWVSVISCSGGTTYYADSVKGRFTISRDNSKNTLYLQMNSLRAEDTAVYYCARNGGQFDLWGQGTLVTVSS
VL: DIQMTQSPSSLSASVGDRVTITCRASQGICTYLNWYQQKPGKAPKLLIYAASSLQSGVPSRFSGSGSGTDFTLTISSLQPEDFATYYCQQSYNPPLTFGGGTKVEIK
